The experiment deals with target antigen-expressing cell line. The experiment is described as follows: Jurkat NFAT-GFP assay, coculture with target cell lines expressing the respective target antigen (summary Table 10A). Set-up: key: The signs +/−, +, 2+ etc. after the name of the cell lines indicate the relative degree of positivity on the Jurkat-NFAT-GFP assay as measured by the % GFP positive cells; +: relative degree of positivity on the Jurkat-NFAT-GFP assay as measured by the % GFP positive cells; 2+: relative degree of positivity on the Jurkat-NFAT-GFP assay as measured by the % GFP positive cells. Format: cell-based, human. The gist of the method: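 Coculture of SIR-bearing Jurkat NFAT-GFP reporters with target cells, ~1:2 E:T, ~4–18 h. FACS quantified % GFP+ cells, ranked semi-quantitatively against parental Jurkat-NFAT-GFP.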

Here are results for five molecules from patent US12269859B2, “Synthetic immune receptors and methods of use thereof” (Angeles Therapeutics, Inc., priority 2016, dated 2025).

Where a chain is given by its changes, count along the chain named.

B1: 012517-N12 (protein)
chain: MALPVTALLLPLALLLHAARPLEGKPIPNPLLGLDSTGSGEDLKNVFPPEVAVFEPSKAEIAHTQKATLVCLATGFYPDHVELSWWVNGKEVHSGVCTDPQPLKEQPALNDSRYCLSSRLRVSATFWQNPRNHFRCQVQFYGLSENDEWTQDRAKPVTQIVSAEAWGRADCGITSASYHQGVLSATILYEILLGKATLYAVLVSALVLMAMVKRKDSRGRAKRSGSGATNFSLLKQAGDVEENPGPTSMALPVTALLLPLALLLHAARPDVVMTQSPLSLPVTPGEPASISCRSSQSLVHSNGNTYLHWYLQKPGQSPQLLIYKVSNRFSGVPDRFSGSGSGTDFTLKISRVEAEDVGVYFCSQSTHVPPFTFGGGTKVEIKGGGGSGGGGSGGGGSEVQLVESGGGLVQPGGSLRLSCAASGFTFSDYYMAWVRQAPGKGLEWVADINYDGGSTYYLDSLKSRFTISRDNAKNSLYLQMNSLRAEDTAVYYCARDRGYYFDYWGQGTLVTVSSTREQKLISEEDGSGIQNPDPAVYQLRDSKSSDKSVCLFTDFDSQTNVSQSKDSDVYITDKCVLDMRSMDFKSNSAVAWSNKSDFACANAFNNSIIPEDTFFPSSDVPCDVKLVEKSFETDTNLNFQNLSVIGFRILLLKVAGFNLLMTLRLWSSRAKRSGSGVKQTLNFDLLKLAGDVESNPGPSRGHMTEYKPTVRLATRDDVPRAVRTLAAAFADYPATRHTVDPDRHIERVTELQELFLTRVGLDIGKVWVADDGAAVAVWTTPESVEAGAVFAEIGPRMAELSGSRLAAQQQMEGLLAPHRPKEPAWFLATVGVSPDHQGKGLGSAVVLPGVEAAERAGVPAFLETSAPRNLPFYERLGFTVTADVEVPEGPRTWCMTRKPGA
Take B1: the “NFAT-GFP ASSAY Positive Cell lines” value (coculture with L363 cells) is “+” and the “NFAT-GFP ASSAY Positive Cell lines” value (coculture with U266 cells) is reported as 2+.

B2: 012517-D12 (protein)
chain: B1 chain with S276T, P281S, E286Q, N304L, D447S, G453E, L458V, L461V, S463G, L509T
As for B2, the “NFAT-GFP ASSAY Positive Cell lines” value is, setting by setting: (coculture with L363 cells) “U266 (+), L363 (+)”; (coculture with U266 cells) “U266 (+), L363 (+)”.

B3: 022817-N08 (protein)
chain: MALPVTALLLPLALLLHAARPDVVMTQTPLSLSVTPGQPASISCRSSQSLVHNNGNTYLHWYLQKPGQSPQLLIYKVSNRFSGVPDRFSGSGSGTDFTLKISRVEAEDVGVYFCSQSTHVPPYTFGGGTKVEIKLEEQKLISEEDLGSGEDLKNVFPPEVAVFEPSKAEIAHTQKATLVCLATGFYPDHVELSWWVNGKEVHSGVCTDPQPLKEQPALNDSRYCLSSRLRVSATFWQNPRNHFRCQVQFYGLSENDEWTQDRAKPVTQIVSAEAWGRADCGITSASYHQGVLSATILYEILLGKATLYAVLVSALVLMAMVKRKDSRGRAKRSGSGATNFSLLKQAGDVEENPGPTSMDWIWRILFLVGAATGAHSFEEVQLVESGGGLVQPGGSLRLSCAASGFTFSDYYMAWVRQAPGKGLEWVAEINYDGSSTYYVDSVKGRFTISRDNAKNSLYLQMNSLRAEDTAVYYCARDRGFYFDYWGQGTTVTVSSTREQKLISEEDLGSGIQNPDPAVYQLRDSKSSDKSVCLFTDFDSQTNVSQSKDSDVYITDKCVLDMRSMDFKSNSAVAWSNKSDFACANAFNNSIIPEDTFFPSSDVPCDVKLVEKSFETDTNLNFQNLSVIGFRILLLKVAGFNLLMTLRLWSSRAKRSGSGVKQTLNFDLLKLAGDVESNPGPSRGHMTEYKPTVRLATRDDVPRAVRTLAAAFADYPATRHTVDPDRHIERVTELQELFLTRVGLDIGKVWVADDGAAVAVWTTPESVEAGAVFAEIGPRMAELSGSRLAAQQQMEGLLAPHRPKEPAWFLATVGVSPDHQGKGLGSAVVLPGVEAAERAGVPAFLETSAPRNLPFYERLGFTVTADVEVPEGPRTWCMTRKPGA
Turning to B3, the “NFAT-GFP ASSAY Positive Cell lines” value is given as “(+/−)” (coculture with L363 cells) and “U266 (+/−), L363” (coculture with U266 cells).

B4: 010417-Z03 (protein)
chain: MALPVTALLLPLALLLHAARPLEGKPIPNPLLGLDSTGSGEDLKNVFPPEVAVFEPSKAEIAHTQKATLVCLATGFYPDHVELSWWVNGKEVHSGVCTDPQPLKEQPALNDSRYCLSSRLRVSATFWQNPRNHFRCQVQFYGLSENDEWTQDRAKPVTQIVSAEAWGRADCGITSASYHQGVLSATILYEILLGKATLYAVLVSALVLMAMVKRKDSRGRAKRSGSGATNFSLLKQAGDVEENPGPTSTMALPVTALLLPLALLLHAARPDIQMTQSPSSLSASVGDRVTITCKASQDVGIAVAWYQQKPGKVPKLLIYWASTRHTGVPDRFSGSGSGTDFTLTISSLQPEDVATYYCQQYSSYPYTFGQGTKVEIKGGGGSGGGGSGGGGSEVQLVESGGGLVQPGGSLRLSCAASGFDFSRYWMSWVRQAPGKGLEWIGEINPDSSTINYAPSLKDKFIISRDNAKNSLYLQMNSLRAEDTAVYYCARPDGNYWYFDVWGQGTLVTVSSTREAAAKEIVMTQSPATLSLSPGERATLSCRASQDISKYLNWYQQKPGQAPRLLIYHTSRLHSGIPARFSGSGSGTDYTLTISSLQPEDFAVYFCQQGNTLPYTFGQGTKLEIKGGGGSGGGGSGGGGSQVQLQESGPGLVKPSETLSLTCTVSGVSLPDYGVSWIRQPPGKGLEWIGVIWGSETTYYNSSLKSRVTISKDNSKNQVSLKLSSVTAADTAVYYCAKHYYYGGSYAMDYWGQGTLVTVSSTREQKLISEEDGSGIQNPDPAVYQLRDSKSSDKSVCLFTDFDSQTNVSQSKDSDVYITDKCVLDMRSMDFKSNSAVAWSNKSDFACANAFNNSIIPEDTFFPSSDVPCDVKLVEKSFETDTNLNFQNLSVIGFRILLLKVAGFNLLMTLRLWSSRAKRSGSGVKQTLNFDLLKLAGDVESNPGPSRGHMTEYKPTVRLATRDDVPRAVRTLAAAFADYPATRHTVDPDRHIERVTELQELFLTRVGLDIGKVWVADDGAAVAVWTTPESVEAGAVFAEIGPRMAELSGSRLAAQQQMEGLLAPHRPKEPAWFLATVGVSPDHQGKGLGSAVVLPGVEAAERAGVPAFLETSAPRNLPFYERLGFTVTADVEVPEGPRTWCMTRKPGA
B4: the “NFAT-GFP ASSAY Positive Cell lines” value is, setting by setting: (coculture with NALM6 cells) “NALM6”; (coculture with RAJI cells) “RAJI”.

B5: 012517-O12 (protein)
chain: MALPVTALLLPLALLLHAARPLEGKPIPNPLLGLDSTGSGEDLKNVFPPEVAVFEPSKAEIAHTQKATLVCLATGFYPDHVELSWWVNGKEVHSGVCTDPQPLKEQPALNDSRYCLSSRLRVSATFWQNPRNHFRCQVQFYGLSENDEWTQDRAKPVTQIVSAEAWGRADCGITSASYHQGVLSATILYEILLGKATLYAVLVSALVLMAMVKRKDSRGRAKRSGSGATNFSLLKQAGDVEENPGPTSMALPVTALLLPLALLLHAARPDIQMTQSSSYLSVSLGGRVTITCKASDHINNWLAWYQQKPGNAPRLLISGATSLETGVPSRFSGSGSGKDYTLSITSLQTEDVATYYCQQYWSTPWTFGGGTKLEIKGGGGSGGGGSGGGGSQVQLQQSGAELARPGASVKLSCKASGYTFTSYWMQWVKQRPGQGLEWIGAIYPGDGDTRYTQKFKGKATLTADKSSSTAYMQLSSLASEDSAVYYCARGKVYYGSNPFAYWGQGTLVTVSATREQKLISEEDGSGIQNPDPAVYQLRDSKSSDKSVCLFTDFDSQTNVSQSKDSDVYITDKCVLDMRSMDFKSNSAVAWSNKSDFACANAFNNSIIPEDTFFPSSDVPCDVKLVEKSFETDTNLNFQNLSVIGFRILLLKVAGFNLLMTLRLWSSRAKRSGSGVKQTLNFDLLKLAGDVESNPGPSRGHMTEYKPTVRLATRDDVPRAVRTLAAAFADYPATRHTVDPDRHIERVTELQELFLTRVGLDIGKVWVADDGAAVAVWTTPESVEAGAVFAEIGPRMAELSGSRLAAQQQMEGLLAPHRPKEPAWFLATVGVSPDHQGKGLGSAVVLPGVEAAERAGVPAFLETSAPRNLPFYERLGFTVTADVEVPEGPRTWCMTRKPGA
Turning to B5, the “NFAT-GFP ASSAY Positive Cell lines” value runs as follows: (coculture with L363 cells) “+/−”; (coculture with U266 cells) “+”.
